Measured values: the supplement of paper PMC9116672
± gives the standard deviation of the averaged measurements or the uncertainty stated by the source.

How the values were obtained:
[1] = duplex melting temperature (HRM, EvaGreen); higher = more stable duplex
Procedure: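 Listed DNA strand annealed 1:1 with its complementary strand (95 °C 5 min, 0.1 °C/s to 20 °C). Melted in 1x NNE buffer (500 mM NaCl, 10 mM Na2HPO4, 1 mM EDTA, pH 7.0) with 1x EvaGreen on a LightCycler96 (37 to 97 °C, 0.1 °C/s). Tm is the peak of -dF/dT at the stated total duplex concentration; 4 replicates are averaged. PS oligos are non-stereospecific (Rp/Sp mixtures).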

[2] = duplex formation free energy ΔG50 (Van't Hoff fit of HRM Tm); higher = less stable duplex; conditions: temperature for dG: 50 °C, NaCl: 500 mM (unadjusted)
Procedure: (§1)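 Duplex of the listed DNA strand with its complement, in 1x NNE buffer (500 mM NaCl, pH 7.0) with 1x EvaGreen. ΔH and ΔS come from a Van't Hoff linear fit of 1/Tm against ln(CT/4) over 1-20 uM, using HRM Tm values.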

[3] = duplex formation enthalpy ΔH (Van't Hoff fit of HRM Tm); higher = less exothermic duplex formation; conditions: temperature for dG: 50 °C, NaCl: 500 mM (unadjusted)
Procedure: as §1

[4] = duplex formation entropy ΔS (Van't Hoff fit of HRM Tm); higher = smaller entropy loss on duplex formation; conditions: temperature for dG: 50 °C, NaCl: 500 mM (unadjusted)
Procedure: as §1

[5] = duplex concentration 1 µM, backbone: PO-PO (both strands phosphodiester DNA)
[6] = duplex concentration 1 µM, backbone: PS-PO (listed strand fully phosphorothioate, complement phosphodiester)
[7] = duplex concentration 1 µM, backbone: PS-PS (both strands fully phosphorothioate)
[8] = duplex concentration 2.5 µM, backbone: PO-PO (both strands phosphodiester DNA)
[9] = duplex concentration 2.5 µM, backbone: PS-PO (listed strand fully phosphorothioate, complement phosphodiester)
[10] = duplex concentration 2.5 µM, backbone: PS-PS (both strands fully phosphorothioate)
[11] = duplex concentration 5 µM, backbone: PO-PO (both strands phosphodiester DNA)
[12] = duplex concentration 5 µM, backbone: PS-PO (listed strand fully phosphorothioate, complement phosphodiester)
[13] = duplex concentration 5 µM, backbone: PS-PS (both strands fully phosphorothioate)
[14] = duplex concentration 7.5 µM, backbone: PO-PO (both strands phosphodiester DNA)
[15] = duplex concentration 7.5 µM, backbone: PS-PO (listed strand fully phosphorothioate, complement phosphodiester)
[16] = duplex concentration 7.5 µM, backbone: PS-PS (both strands fully phosphorothioate)
[17] = duplex concentration 10 µM, backbone: PO-PO (both strands phosphodiester DNA)
[18] = duplex concentration 10 µM, backbone: PS-PO (listed strand fully phosphorothioate, complement phosphodiester)
[19] = duplex concentration 10 µM, backbone: PS-PS (both strands fully phosphorothioate)
[20] = duplex concentration 15 µM, backbone: PO-PO (both strands phosphodiester DNA)
[21] = duplex concentration 15 µM, backbone: PS-PO (listed strand fully phosphorothioate, complement phosphodiester)
[22] = duplex concentration 15 µM, backbone: PS-PS (both strands fully phosphorothioate)
[23] = duplex concentration 20 µM, backbone: PO-PO (both strands phosphodiester DNA)
[24] = duplex concentration 20 µM, backbone: PS-PO (listed strand fully phosphorothioate, complement phosphodiester)
[25] = duplex concentration 20 µM, backbone: PS-PS (both strands fully phosphorothioate)
[26] = backbone: PO-PO (both strands phosphodiester DNA)
[27] = backbone: PS-PO (listed strand fully phosphorothioate, complement phosphodiester)
[28] = backbone: PS-PS (both strands fully phosphorothioate)

Row | Sequence | duplex melting temperature [1, 5] [°C] | duplex melting temperature [1, 6] [°C] | duplex melting temperature [1, 7] [°C] | duplex melting temperature [1, 8] [°C] | duplex melting temperature [1, 9] [°C] | duplex melting temperature [1, 10] [°C] | duplex melting temperature [1, 11] [°C] | duplex melting temperature [1, 12] [°C] | duplex melting temperature [1, 13] [°C] | duplex melting temperature [1, 14] [°C] | duplex melting temperature [1, 15] [°C] | duplex melting temperature [1, 16] [°C] | duplex melting temperature [1, 17] [°C] | duplex melting temperature [1, 18] [°C] | duplex melting temperature [1, 19] [°C] | duplex melting temperature [1, 20] [°C] | duplex melting temperature [1, 21] [°C] | duplex melting temperature [1, 22] [°C] | duplex melting temperature [1, 23] [°C] | duplex melting temperature [1, 24] [°C] | duplex melting temperature [1, 25] [°C] | duplex formation free energy ΔG50 [2, 26] [kJ/mol] | duplex formation free energy ΔG50 [2, 27] [kJ/mol] | duplex formation free energy ΔG50 [2, 28] [kJ/mol] | duplex formation enthalpy ΔH [3, 26] [kJ/mol] | duplex formation enthalpy ΔH [3, 27] [kJ/mol] | duplex formation enthalpy ΔH [3, 28] [kJ/mol] | duplex formation entropy ΔS [4, 26] [cal/mol/K] | duplex formation entropy ΔS [4, 27] [cal/mol/K] | duplex formation entropy ΔS [4, 28] [cal/mol/K]
1 | TTGTAGTTGACGTTTGTGATTTAGTGAATT | 75.58 ± 0.12 | 66.16 ± 0.47 | 57.2 ± 0.68 | 76.626 ± 0.046 | 67.48 ± 0.5 | 59 ± 0.58 | 77.623 ± 0.046 | 68.57 ± 0.46 | 60.27 ± 0.37 | 78.24 ± 0.12 | 69.28 ± 0.39 | 60.98 ± 0.26 | 78.646 ± 0.027 | 69.64 ± 0.24 | 61.54 ± 0.13 | 78.98 ± 0.12 | 70.23 ± 0.23 | 62.29 ± 0.073 | 79.7 | 70.83 ± 0.099 | 62.84 ± 0.14 | -97.8 ± 2.72 | -70.9 ± 1 | -52.07 ± 0.339 | -778 ± 34.3 | -631 ± 17.6 | -504 ± 10.5 | -503 ± 23 | -414 ± 12 | -335 ± 7.4
2 | GCGGTTGGTGGCCAAC |  | 63.49 ± 0.42 | 56.4 ± 0.12 | 72.845 ± 0.0061 | 65.54 ± 0.56 | 59.65 ± 0.13 | 74.66 ± 0.1 | 67.67 ± 0.49 | 61.64 ± 0.16 | 75.96 ± 0.21 | 68.96 ± 0.29 | 62.663 ± 0.048 | 76.8 ± 0.26 | 69.81 ± 0.25 | 63.516 ± 0.06 | 77.93 ± 0.21 | 71.07 ± 0.17 | 64.64 ± 0.11 | 78.54 ± 0.17 | 71.91 ± 0.09 | 65.39 ± 0.087 | -62.4 ± 1.17 | -54.1 ± 0.544 | -47.23 ± 0.372 | -364 ± 15.1 | -337 ± 10 | -314 ± 10 | -223 ± 10 | -209 ± 7.1 | -197 ± 7.2
3 | CCGTTGCTGCTAGG |  |  | 45.8 ± 0.71 | 65.75 ± 0.21 | 59.6 | 49.3 ± 1.4 | 68 ± 0.31 | 61.1 ± 1 | 53.433 ± 0.0017 | 69.13 ± 0.18 | 63.1 ± 0.69 | 56 | 70.55 ± 0.22 | 63.92 ± 0.4 | 57.4 | 71.88 ± 0.22 | 65.35 ± 0.083 | 60.5 | 72.82 ± 0.098 | 65.77 ± 0.2 | 61.75 ± 0.28 | -51.5 ± 1.05 | -46.6 ± 1.38 | -38.62 ± 0.213 | -284 ± 18.8 | -290 ± 32.6 | -170 ± 10.5 | -172 ± 13 | -180 ± 23 | -97.4 ± 7.7
4 | ACTCGCTCTACCTTAAT | 60.43 ± 0.52 |  | 46.7 ± 0.53 | 62.88 ± 0.38 | 55.24 ± 0.45 | 50.2 ± 0.22 | 65.23 ± 0.53 | 57.69 ± 0.21 | 52.44 ± 0.085 | 66.57 ± 0.5 | 59.03 ± 0.074 | 53.72 ± 0.14 | 67.63 ± 0.18 | 59.946 ± 0.043 | 54.68 ± 0.21 | 69.17 ± 0.14 | 61.16 ± 0.2 | 55.75 ± 0.19 | 70.4 ± 0.34 | 62.06 ± 0.28 | 56.8 ± 0.2 | -49.5 ± 0.669 | -42.97 ± 0.251 | -38.35 ± 0.113 | -286 ± 13.8 | -280 ± 8.79 | -264 ± 8.37 | -175 ± 9.7 | -176 ± 6.4 | -167 ± 6.3
5 | AACGAATGTCAGCAATT | 62.43 ± 0.59 | 55.7 ± 0.6 | 47.1 ± 0.49 | 64.93 ± 0.41 | 58.37 ± 0.15 | 49.91 ± 0.19 | 66.97 ± 0.37 | 60.36 ± 0.23 | 52.27 ± 0.13 | 68.1 ± 0.45 | 61.59 ± 0.21 | 53.4 ± 0.093 | 69.1 ± 0.15 | 62.44 ± 0.15 | 54.261 ± 0.011 | 70.52 ± 0.15 | 63.69 ± 0.16 | 55.38 ± 0.048 | 71.52 ± 0.29 | 64.46 ± 0.11 | 56.34 ± 0.12 | -52.1 ± 0.628 | -46.23 ± 0.163 | -38.35 ± 0.0962 | -311 ± 11.7 | -312 ± 4.6 | -287 ± 7.95 | -192 ± 8.3 | -197 ± 3.4 | -184 ± 5.7
6 | TTAACCTGCAATGGATC | 60.19 ± 0.12 |  | 45.6 ± 0.62 | 63.2 ± 0.41 | 57.18 ± 0.21 | 48.62 ± 0.33 | 65.13 ± 0.59 | 59.09 ± 0.26 | 50.69 ± 0.37 | 66.57 ± 0.28 | 60.587 ± 0.046 | 51.91 ± 0.21 | 67.55 ± 0.2 | 61.376 ± 0.056 | 52.76 ± 0.14 | 68.98 ± 0.14 | 62.586 ± 0.015 | 54.03 ± 0.099 | 70.06 ± 0.25 | 63.32 ± 0.095 | 54.97 ± 0.2 | -49.51 ± 0.41 | -45.09 ± 0.276 | -37.06 ± 0.0795 | -287 ± 8.37 | -308 ± 8.37 | -281 ± 7.95 | -176 ± 5.8 | -195 ± 6.1 | -180 ± 5.8
7 | ATAACTTACTCTCGCCT | 63.6 ± 0.52 | 53.9 | 47.36 ± 0.27 | 65.26 ± 0.45 | 56.75 ± 0.23 | 50.73 ± 0.41 | 67.07 ± 0.61 | 59 ± 0.16 | 53.03 ± 0.18 | 68.39 ± 0.58 | 60.21 ± 0.15 | 54.3 ± 0.082 | 69.34 ± 0.46 | 61.01 ± 0.18 | 55.17 ± 0.085 | 70.85 ± 0.28 | 62.23 ± 0.12 | 56.32 ± 0.24 | 72.01 ± 0.25 | 63.109 ± 0.04 | 57.138 ± 0.039 | -53.2 ± 1.21 | -44.57 ± 0.176 | -38.86 ± 0.13 | -326 ± 22.6 | -301 ± 5.86 | -271 ± 8.79 | -201 ± 16 | -190 ± 4 | -172 ± 6.5
8 | CCACTAGCGGCGCCGTT |  | 67.57 ± 0.56 | 62.65 ± 0.14 | 78.31 ± 0.24 | 70.82 ± 0.38 | 65.52 ± 0.13 | 80.05 ± 0.14 | 73 ± 0.26 | 67.54 ± 0.18 | 81.18 ± 0.29 | 74.33 ± 0.2 | 68.59 ± 0.13 | 81.87 ± 0.19 | 75.285 ± 0.053 | 69.501 ± 0.06 | 83.03 ± 0.12 | 76.37 ± 0.18 | 70.49 ± 0.094 | 83.58 ± 0.28 | 77.3 ± 0.13 | 71.36 ± 0.16 | -71.1 ± 1.51 | -57.4 ± 0.711 | -53.57 ± 0.406 | -406 ± 16.7 | -314 ± 10.5 | -334 ± 7.53 | -247 ± 11 | -190 ± 7.2 | -207 ± 5.3
9 | GTGGTACAAATGCGACC | 66.7 | 58.59 ± 0.28 | 49.91 ± 0.4 | 68.46 ± 0.35 | 61.19 ± 0.13 | 52.86 ± 0.053 | 70.27 ± 0.1 | 63.12 ± 0.081 | 54.891 ± 0.046 | 71.34 ± 0.084 | 64.14 ± 0.075 | 55.93 ± 0.084 | 72.06 ± 0.12 | 65.04 ± 0.1 | 56.63 ± 0.12 | 73.205 ± 0.062 | 66.133 ± 0.0075 | 57.534 ± 0.054 | 74.14 ± 0.12 | 66.91 ± 0.08 | 58.25 ± 0.083 | -58.26 ± 0.502 | -49.67 ± 0.151 | -41.07 ± 0.218 | -368 ± 7.95 | -339 ± 3.68 | -323 ± 12.1 | -229 ± 5.5 | -214 ± 2.6 | -209 ± 8.9
